These results are taken from paper PMC12193700, “Hyperthermophilic L-Asparaginase from Thermococcus sibiricus and Its Double Mutant with Increased Activity: Insights into Substrate Specificity and Structure” (International Journal of Molecular Sciences, 2025).

Holding throughout (assay): direct Nesslerization (ammonia release)
Data set [1] concerns the target T1, TsAI (Thermococcus sibiricus, UniProt C6A532, D54G/T56Q).
T1 construct: gene TSIB_1676; full-length, 331 residues, homodimer
The data set is classed as biochemical. The settings on record: 90 °C, 0.05 M Tris-HCl pH 9.0; 0.25–20 mM substrate. An excerpt: (§1) direct Nesslerization (ammonia release) on TsAI

Substrate in data set [2]: NC(=O)CC[C@@H](N)C(=O)O
The data set is classed as biochemical, Thermococcus sibiricus. The settings on record: 90 °C, 0.05 M Tris-HCl pH 9.0, 0.25–40 mM substrate.
Excerpt: as §1

Substrate in data set [3]: NC(=O)CC[C@H](N)C(=O)O
The data set is classed as biochemical, Thermococcus sibiricus. The settings on record: 90 °C, 0.05 M Tris-HCl pH 9.0, 0.25–30 mM substrate.
Excerpt: as §1

Substrate in data set [4]: NC(=O)C[C@@H](N)C(=O)O
The data set is classed as biochemical, Thermococcus sibiricus. The settings on record: 90 °C, 0.05 M Tris-HCl pH 9.0, 0.25–30 mM substrate.
Excerpt: as §1

Substrate in data set [5]: NC(=O)C[C@H](N)C(=O)O
The data set is classed as biochemical, Thermococcus sibiricus. Particulars: 90 °C, 0.05 M Tris-HCl pH 9.0, 0.25–20 mM substrate.
Excerpt: as §1

As a reminder, the Km is the concentration of substrate that gives half-maximal velocity. Usually Vmax stands for the rate approached at saturating substrate.

Where a chain is given by its changes, count along the chain named. Names may count otherwise.

T1 sequence (C6A532 entry or part of it D54G/T56Q): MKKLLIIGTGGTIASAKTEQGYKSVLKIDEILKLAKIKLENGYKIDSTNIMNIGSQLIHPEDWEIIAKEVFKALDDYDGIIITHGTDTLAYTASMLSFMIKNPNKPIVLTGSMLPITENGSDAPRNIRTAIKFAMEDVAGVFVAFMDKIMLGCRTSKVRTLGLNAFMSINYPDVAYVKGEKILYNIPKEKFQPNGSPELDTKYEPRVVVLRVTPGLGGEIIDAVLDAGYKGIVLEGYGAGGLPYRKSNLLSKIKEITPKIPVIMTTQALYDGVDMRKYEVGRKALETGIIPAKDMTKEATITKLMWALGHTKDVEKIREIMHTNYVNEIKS

`NC(=O)C[C@H](N)C(=O)O` [L-asparagine]: in data set [1], the Km stood at 6.03 ± 0.15 mM.

B1: TsAI (Thermococcus sibiricus MM 739) (protein)
chain: MKKLLIIGTGGTIASAKTEQGYKSVLKIDEILKLAKIKLENGYKIDSTNIMNIDSTLIHPEDWEIIAKEVFKALDDYDGIIITHGTDTLAYTASMLSFMIKNPNKPIVLTGSMLPITENGSDAPRNIRTAIKFAMEDVAGVFVAFMDKIMLGCRTSKVRTLGLNAFMSINYPDVAYVKGEKILYNIPKEKFQPNGSPELDTKYEPRVVVLRVTPGLGGEIIDAVLDAGYKGIVLEGYGAGGLPYRKSNLLSKIKEITPKIPVIMTTQALYDGVDMRKYEVGRKALETGIIPAKDMTKEATITKLMWALGHTKDVEKIREIMHTNYVNEIKS
notes: full-length, 331 residues, homodimer
As to B1, the Michaelis constant (Km) in data set [2] is on record as 13.86 ± 0.86 mM; in data set [3], 11.09 ± 0.25 mM; in data set [4] it was 8.63 ± 0.48 mM; in data set [5] it was 3.10 ± 0.15 mM. For the same molecule, the Vmax came to 180 µM/min in data set [2], 280 µM/min in data set [3], 660 µM/min in data set [4] and 4020 µM/min in data set [5].

B2: TsAI (Thermococcus sibiricus MM 739; D54G/T56Q) (protein)
chain: B1 chain with D54G, T56Q
notes: as for B1
On to B2, for which the Km came out at 14.40 ± 1.60 mM in data set [2], 11.41 ± 0.27 mM in data set [3] and 9.18 ± 0.86 mM in data set [4]. Further, the Vmax in data set [2] is 180 µM/min; in data set [3], 250 µM/min; in data set [4] it was 590 µM/min.
